This note sets out measurements from publication PMC5830446, “Spatial specificity of auxin responses coordinates wood formation”.

This data set addresses T1, ARF5 DNA-binding domain (ARF5-DBD) (UniProt P93024 120-274).
T1 sequence: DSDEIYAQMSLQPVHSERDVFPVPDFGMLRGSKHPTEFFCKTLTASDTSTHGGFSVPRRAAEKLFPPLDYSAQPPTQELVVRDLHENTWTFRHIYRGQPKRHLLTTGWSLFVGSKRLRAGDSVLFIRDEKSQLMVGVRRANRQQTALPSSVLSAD
The experiment in a line: EMSA; EMSA: 12.5 pmol ARF5-DBD (doubled in competition), 200 fmol Cy5 probe, 10 mM Tris-HCl pH 7.4, 75 mM NaCl, 50 ng/ul poly(dI-dC), 1 mM DTT, 20 min room temperature; 6% native gel, 0.5x TBE. The note with it: protein: recombinant; tags: 6xHis-MBP removed by TEV protease; label: 5' Cy5 (both strands); blunt. In general terms: In EMSA bound probe runs differently from free probe, usually more slowly.

B1: WOX4a (dsDNA)
DNA 1: GCTCCATGCAGACATGAACATA
DNA 2: TATGTTCATGTCTGCATGGAGC
In the case of B1, the binding result is “binds”.

B2: WOX4b (dsDNA)
DNA 1: AATCTGTCATTACCGACATAGT
DNA 2: ACTATGTCGGTAATGACAGATT
With B2, the binding result is on record as “no binding”.
